In patent US20050037420A1 (published 2005):

T1: full-length NSM protein (putative movement protein of Tomato Spotted Wilt Virus) obtained from the IMPACT … (Tomato Spotted Wilt Virus, UniProt P36292 1-301)
T1 construct: mature; also called soluble NSM protein
T1 sequence (looked up): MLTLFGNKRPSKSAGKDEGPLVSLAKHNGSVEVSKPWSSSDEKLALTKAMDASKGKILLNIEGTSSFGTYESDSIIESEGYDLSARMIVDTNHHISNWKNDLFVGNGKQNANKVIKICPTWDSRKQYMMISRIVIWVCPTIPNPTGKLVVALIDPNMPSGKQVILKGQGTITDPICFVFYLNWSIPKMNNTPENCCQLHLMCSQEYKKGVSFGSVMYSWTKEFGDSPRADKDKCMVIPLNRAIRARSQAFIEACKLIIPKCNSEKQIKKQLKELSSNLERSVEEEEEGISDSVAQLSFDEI

B1: scFv N3 (scFv)
scFv: AVTLDESGGGLQTPGGGLSLVCKASGFSFSSYSMGWVRQAPGKGLEWVAGIGSSVIRTYYAPAVKGRATIPRDNGQSTVRLQLNDLRAEDTGTYYCAKESGSGKWFSIGQIDAWGHGTEVTVSSGSTSGSGKPGPGEGSTKGAPALTQPSSVSANPGGTVQITCSGGSGSYGWFQQKSPGSAPVTVIYSSDKRPSDIPSRFSGSKSGSTGTLTITGVQADDEAVYFCGSADSSHLGIFGAGTTLTVLGQP
notes: Soluble scFv, mini-scale (pHEN4II, c-myc tag) or large-scale (pTMZ1, IMAC purified) from E. coli; also called clone N3; not shown: C-terminal c-myc and his-6 tags from the expression vector
B2: scFv N10 (scFv)
scFv: AVTLDESGGGLQTPGGGLSLVCKASGFSFSSYSMGWVRQAPGKGLEWVAGIGSSVIRTYYAPAVKGRATIPRDNGQSTVRLQLNDLRAEDTGTYYCAKESGSGKWFSIGQIDAWGHGTEVTVSSGSTSGSGKPGPGEGSTKGAPALTQPSSVSANPGGTVQITCSGGSGNYGWFQQKSPGSAPVTVIYSSDKRPSDIPSRFSGSKSGSTGTLTITGVQADDEAVYFCGSADSSHLGIFGAGTTLTVLGQP
notes: Soluble scFv, mini-scale (pHEN4II, c-myc tag) or large-scale (pTMZ1, IMAC purified) from E. coli; also called clone N10; not shown: C-terminal c-myc and his-6 tags from the expression vector
B3: scFv N12 (scFv)
scFv: AVTLDESGGGLQTPGGGLSLVCKASGFDFSSYDMVWVRQAPGKGLEWVAGISSGSGPNYGAAVKGRATISRDNGQSTVRLQLNNLRAEDTATYYCAKNEGADWCGHYYCSVAYIDAWGHGTEVTVSSGSTSGSGKPGPGEGSTKGAPALTQPSSVSANPGETVKITCSGGSGDHYGWFQQKSPGSAPVTVIYNNDNRPSDIPSRFSGSKSGSTHTLTITGVQVEDEAVYFCGNRDSSAGIFGAGTTLTVLGQP
notes: Soluble scFv, mini-scale (pHEN4II, c-myc tag) or large-scale (pTMZ1, IMAC purified) from E. coli; also called clone N12; not shown: C-terminal c-myc and his-6 tags from the expression vector
B4: scFv N5 (scFv)
scFv: AVTLDESGGGLQTPGGGLSLVCKASGFDFSSYDMVWVRQAPGKGLEWVAGISSGSVPNYGAAVKGRATISRDNGQSTVRLQLNNLRAEDTATYYCAKNEGADWCGHYYCSVAYIDAWGHGTEVTVSSGSTSGSGKPGPGEGSTKGAPALTQPSSVSANPGETVKITCSGGSGDHYGWFQQKSPGSAPVTVIYKNENRPSDIPSRFSGSKSGSTHTLTITGVQVEDEAVYFCGNRDSSAGIFGAGTTLTVLGQP
notes: Soluble scFv, mini-scale (pHEN4II, c-myc tag) or large-scale (pTMZ1, IMAC purified) from E. coli; also called clone N5; not shown: C-terminal c-myc and his-6 tags from the expression vector

molecular target: T1, full-length NSM protein (putative …); experiment: ELISA, full-length NSM coated, mini-scale expressed soluble scFv; vector control OD 0.02
Source text: NSM-specific clones were identified by ELISA using mini-scale expressed soluble scFvs and full-length NSM protein for coating.

| Binder | OD410 nm [OD] |
| --- | --- |
| B1 | 0.2 |
| B2 | 0.2 |
| B3 | 0.2 |
| B4 | 0.2 |
